T1: GRIP1_7, Q9Y3R0
T1 sequence (Q9Y3R0 999-1096, limits assumed, looked up): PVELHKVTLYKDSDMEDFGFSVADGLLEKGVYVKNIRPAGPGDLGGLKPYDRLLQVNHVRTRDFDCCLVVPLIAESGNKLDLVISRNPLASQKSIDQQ

T2: DLG3_3, Q92796
T2 sequence (Q92796 374-475, limits assumed, looked up): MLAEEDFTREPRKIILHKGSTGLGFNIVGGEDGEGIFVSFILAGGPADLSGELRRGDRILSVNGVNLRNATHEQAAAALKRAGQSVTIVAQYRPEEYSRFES

T3: PCLO, Q9Y6V0
T3 sequence (Q9Y6V0 4491-4600, limits assumed, looked up): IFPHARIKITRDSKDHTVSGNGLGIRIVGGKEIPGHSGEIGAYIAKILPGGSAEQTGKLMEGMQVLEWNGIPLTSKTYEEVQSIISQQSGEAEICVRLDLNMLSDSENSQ

T4: DFNB31_1, Q9P202
T4 sequence (Q9P202 135-233, limits assumed, looked up): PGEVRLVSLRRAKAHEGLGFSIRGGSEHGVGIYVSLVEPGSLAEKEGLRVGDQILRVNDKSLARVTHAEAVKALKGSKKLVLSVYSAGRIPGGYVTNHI

T5: DVL3, Q92997
T5 sequence (Q92997 244-331, limits assumed, looked up): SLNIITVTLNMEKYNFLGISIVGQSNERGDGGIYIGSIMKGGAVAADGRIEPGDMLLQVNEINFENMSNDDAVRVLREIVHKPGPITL

T6: TIAM2, Q8IVF5
T6 sequence (Q8IVF5 885-986, limits assumed, looked up): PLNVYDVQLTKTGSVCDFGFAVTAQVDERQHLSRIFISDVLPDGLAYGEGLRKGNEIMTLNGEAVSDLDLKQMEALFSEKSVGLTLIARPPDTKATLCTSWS

T7: GRIP1_3, Q9Y3R0
T7 sequence (Q9Y3R0 247-346, limits assumed, looked up): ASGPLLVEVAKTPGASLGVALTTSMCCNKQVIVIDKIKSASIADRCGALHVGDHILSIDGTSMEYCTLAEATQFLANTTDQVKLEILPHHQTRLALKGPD

T8: DFNB31_3, Q9P202
T8 sequence (Q9P202 811-907, limits assumed, looked up): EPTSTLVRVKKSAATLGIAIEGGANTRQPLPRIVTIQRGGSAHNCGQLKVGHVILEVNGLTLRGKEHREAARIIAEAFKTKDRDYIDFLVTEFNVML

T9: CARD11, Q9BXL7
T9 sequence (Q9BXL7 662-765, limits assumed, looked up): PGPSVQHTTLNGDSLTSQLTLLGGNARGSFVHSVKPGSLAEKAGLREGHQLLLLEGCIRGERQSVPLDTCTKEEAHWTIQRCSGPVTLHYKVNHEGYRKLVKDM

T10: RHPN1, Q8TCX5
T10 sequence (Q8TCX5 508-602, limits assumed, looked up): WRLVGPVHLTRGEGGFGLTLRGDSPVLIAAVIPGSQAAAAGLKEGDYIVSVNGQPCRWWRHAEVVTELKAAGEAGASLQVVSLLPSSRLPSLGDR

T11: LNX2_3, Q8N448
T11 sequence (Q8N448 463-564, limits assumed, looked up): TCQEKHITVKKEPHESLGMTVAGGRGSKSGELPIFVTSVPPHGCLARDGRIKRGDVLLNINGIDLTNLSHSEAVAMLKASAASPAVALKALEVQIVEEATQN

B1: SLCO1C1, Q9NYB5 (peptide)
chain: NYWPGKETQL
B2: PTEN, P60484 (peptide)
chain: DEDQHTQITKV

These binders were tested against T1, GRIP1_7, Q9Y3R0 (assay: holdup assay). Settings: plain residues with an end cap or a label only (N-terminal biotin on a linker: ttds).
Parameters: key: below the threshold = too weak to quantify, mostly under pKd 3.1 to 4
For B1, the pKd was “below the threshold”. In the case of B2, the pKd is reported as “below the threshold”.

These binders were tested against T2, DLG3_3, Q92796 (assay: holdup assay). Settings: plain residues with an end cap or a label only (N-terminal biotin on a linker: ttds).
Parameters: key: below the threshold = too weak to quantify, mostly under pKd 3.1 to 4
B1 was tested, and the pKd was 4.25. With B2 the pKd was 3.71.

The binders below were run against DLG1_1, Q12959 (assay: holdup assay). Settings: plain residues with an end cap or a label only (N-terminal biotin on a linker: ttds).
Parameters: key: below the threshold = too weak to quantify, mostly under pKd 3.1 to 4
Binder B1 has a pKd of 4.74. Binder B2 has a pKd of 3.64.

What follows are binders tested against MAGI2_3, Q86UL8 (assay: holdup assay). Settings: plain residues with an end cap or a label only (N-terminal biotin on a linker: ttds).
Chain of MAGI2_3, Q86UL8 (Q86UL8 600-682): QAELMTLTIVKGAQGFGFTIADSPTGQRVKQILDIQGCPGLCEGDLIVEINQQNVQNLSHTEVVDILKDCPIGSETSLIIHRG
Parameters: key: below the threshold = too weak to quantify, mostly under pKd 3.1 to 4
In the case of B1, the pKd is reported as “below the threshold”. B2 gave a pKd of 4.64.

The binders below were run against DLG1_2, Q12959 (assay: holdup assay). Settings: plain residues with an end cap or a label only (N-terminal biotin on a linker: ttds).
Parameters: key: below the threshold = too weak to quantify, mostly under pKd 3.1 to 4
B1 showed a pKd of 5.37. B2 was tested, and the pKd was 3.97.

Each binder was assayed against T3, PCLO, Q9Y6V0 (assay: holdup assay). Settings: plain residues with an end cap or a label only (N-terminal biotin on a linker: ttds).
Parameters: key: below the threshold = too weak to quantify, mostly under pKd 3.1 to 4
B1 was tested, and the pKd was “below the threshold”. B2 was tested, and the pKd was “below the threshold”.

Each binder was assayed against T4, DFNB31_1, Q9P202 (assay: holdup assay). Settings: plain residues with an end cap or a label only (N-terminal biotin on a linker: ttds).
Parameters: key: below the threshold = too weak to quantify, mostly under pKd 3.1 to 4
Binder B1 has a pKd of 4.44. Work on B2 yielded a pKd of 3.86.

Each binder was assayed against MAGI2_5, Q86UL8 (assay: holdup assay). Settings: plain residues with an end cap or a label only (N-terminal biotin on a linker: ttds).
Chain of MAGI2_5, Q86UL8 (Q86UL8 915-1017): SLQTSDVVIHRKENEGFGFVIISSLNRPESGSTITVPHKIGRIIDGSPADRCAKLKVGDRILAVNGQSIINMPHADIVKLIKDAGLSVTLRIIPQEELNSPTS
Parameters: key: below the threshold = too weak to quantify, mostly under pKd 3.1 to 4
In the case of B1, the pKd is reported as 3.87. In the case of B2, the pKd is reported as 4.15.

These binders were tested against TJP2_1, Q9UDY2 (assay: holdup assay). Settings: plain residues with an end cap or a label only (N-terminal biotin on a linker: ttds).
Chain of TJP2_1, Q9UDY2 (Q9UDY2 24-128): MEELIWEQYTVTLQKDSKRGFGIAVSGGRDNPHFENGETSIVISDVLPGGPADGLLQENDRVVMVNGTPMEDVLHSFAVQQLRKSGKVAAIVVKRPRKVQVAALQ
Parameters: key: below the threshold = too weak to quantify, mostly under pKd 3.1 to 4
In the case of B1, the pKd is reported as “below the threshold”. B2 was tested, and the pKd was “below the threshold”.

What follows are binders tested against FRMPD3, Q5JV73 (assay: holdup assay). Settings: plain residues with an end cap or a label only (N-terminal biotin on a linker: ttds).
Chain of FRMPD3, Q5JV73 (Q5JV73 12-100): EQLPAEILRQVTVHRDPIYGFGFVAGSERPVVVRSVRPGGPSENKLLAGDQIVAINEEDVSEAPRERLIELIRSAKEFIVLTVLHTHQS
Parameters: key: below the threshold = too weak to quantify, mostly under pKd 3.1 to 4
With B1 the pKd was “below the threshold”. In the case of B2, the pKd is reported as “below the threshold”.

What follows are binders tested against MAGI1_2, Q96QZ7 (assay: holdup assay). Settings: plain residues with an end cap or a label only (N-terminal biotin on a linker: ttds).
Chain of MAGI1_2, Q96QZ7 (Q96QZ7 456-580): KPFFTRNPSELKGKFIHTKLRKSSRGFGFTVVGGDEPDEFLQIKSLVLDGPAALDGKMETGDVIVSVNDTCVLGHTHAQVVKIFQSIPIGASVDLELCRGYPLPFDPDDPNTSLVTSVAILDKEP
Parameters: key: below the threshold = too weak to quantify, mostly under pKd 3.1 to 4
B1 was tested, and the pKd was 4.15. B2 was tested, and the pKd was “below the threshold”.

Each binder was assayed against DLG4_3, P78352 (assay: holdup assay). Settings: plain residues with an end cap or a label only (N-terminal biotin on a linker: ttds).
Chain of DLG4_3, P78352 (P78352 306-403): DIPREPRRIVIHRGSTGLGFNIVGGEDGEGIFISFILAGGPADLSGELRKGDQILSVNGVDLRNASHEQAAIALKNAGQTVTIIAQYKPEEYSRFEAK
Parameters: key: below the threshold = too weak to quantify, mostly under pKd 3.1 to 4
Binder B1 has a pKd of 4.18. For B2, the pKd was 3.56.

These binders were tested against T5, DVL3, Q92997 (assay: holdup assay). Settings: plain residues with an end cap or a label only (N-terminal biotin on a linker: ttds).
Parameters: key: below the threshold = too weak to quantify, mostly under pKd 3.1 to 4
B1 was tested, and the pKd was “below the threshold”. With B2 the pKd was “below the threshold”.

What follows are binders tested against SCRIB_3, Q14160 (assay: holdup assay). Settings: plain residues with an end cap or a label only (N-terminal biotin on a linker: ttds).
Chain of SCRIB_3, Q14160 (Q14160 999-1103): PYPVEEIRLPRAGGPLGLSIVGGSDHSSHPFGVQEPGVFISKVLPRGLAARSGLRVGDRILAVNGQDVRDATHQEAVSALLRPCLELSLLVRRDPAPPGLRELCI
Parameters: key: below the threshold = too weak to quantify, mostly under pKd 3.1 to 4
For B1, the pKd was 5.6. B2 showed a pKd of 3.94.

What follows are binders tested against PTPN3, P26045 (assay: holdup assay). Settings: plain residues with an end cap or a label only (N-terminal biotin on a linker: ttds).
Chain of PTPN3, P26045 (P26045 505-587): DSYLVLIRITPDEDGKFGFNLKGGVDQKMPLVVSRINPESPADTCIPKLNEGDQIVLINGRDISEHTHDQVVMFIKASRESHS
Parameters: key: below the threshold = too weak to quantify, mostly under pKd 3.1 to 4
B1 showed a pKd of 5.42. In the case of B2, the pKd is reported as 3.94.

What follows are binders tested against Inadl_6, Q8NI35 (assay: holdup assay). Settings: plain residues with an end cap or a label only (N-terminal biotin on a linker: ttds).
Chain of Inadl_6, Q8NI35 (Q8NI35 1058-1167): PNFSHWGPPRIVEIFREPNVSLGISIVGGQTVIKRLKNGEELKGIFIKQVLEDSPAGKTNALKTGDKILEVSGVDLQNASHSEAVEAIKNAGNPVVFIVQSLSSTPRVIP
Parameters: key: below the threshold = too weak to quantify, mostly under pKd 3.1 to 4
For B1, the pKd was 4.61. Binder B2 has a pKd of 3.82.

These binders were tested against NHERF2_2, Q15599 (assay: holdup assay). Settings: plain residues with an end cap or a label only (N-terminal biotin on a linker: ttds).
Chain of NHERF2_2, Q15599 (Q15599 142-238): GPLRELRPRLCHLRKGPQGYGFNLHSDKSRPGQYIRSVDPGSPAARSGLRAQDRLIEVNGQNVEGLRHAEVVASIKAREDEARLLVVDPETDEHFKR
Parameters: key: below the threshold = too weak to quantify, mostly under pKd 3.1 to 4
B1 showed a pKd of 4.69. B2 showed a pKd of 4.29.

The binders below were run against T6, TIAM2, Q8IVF5 (assay: holdup assay). Settings: plain residues with an end cap or a label only (N-terminal biotin on a linker: ttds).
Parameters: key: below the threshold = too weak to quantify, mostly under pKd 3.1 to 4
With B1 the pKd was “below the threshold”. With B2 the pKd was “below the threshold”.

The binders below were run against MAST1, Q9Y2H9 (assay: holdup assay). Settings: plain residues with an end cap or a label only (N-terminal biotin on a linker: ttds).
Chain of MAST1, Q9Y2H9 (Q9Y2H9 962-1065): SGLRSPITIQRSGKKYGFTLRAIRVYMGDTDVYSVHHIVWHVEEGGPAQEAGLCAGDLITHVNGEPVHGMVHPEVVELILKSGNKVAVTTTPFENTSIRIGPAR
Parameters: key: below the threshold = too weak to quantify, mostly under pKd 3.1 to 4
B1 gave a pKd of 5.26. B2 was tested, and the pKd was 4.79.

Each binder was assayed against Inadl_10, Q8NI35 (assay: holdup assay). Settings: plain residues with an end cap or a label only (N-terminal biotin on a linker: ttds).
Chain of Inadl_10, Q8NI35 (Q8NI35 1673-1763): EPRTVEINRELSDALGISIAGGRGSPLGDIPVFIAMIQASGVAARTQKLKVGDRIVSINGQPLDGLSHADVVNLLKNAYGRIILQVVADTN
Parameters: key: below the threshold = too weak to quantify, mostly under pKd 3.1 to 4
In the case of B1, the pKd is reported as “below the threshold”. In the case of B2, the pKd is reported as 3.58.

The binders below were run against T7, GRIP1_3, Q9Y3R0 (assay: holdup assay). Settings: plain residues with an end cap or a label only (N-terminal biotin on a linker: ttds).
Parameters: key: below the threshold = too weak to quantify, mostly under pKd 3.1 to 4
For B1, the pKd was “below the threshold”. For B2, the pKd was “below the threshold”.

What follows are binders tested against T8, DFNB31_3, Q9P202 (assay: holdup assay). Settings: plain residues with an end cap or a label only (N-terminal biotin on a linker: ttds).
Parameters: key: below the threshold = too weak to quantify, mostly under pKd 3.1 to 4
For B1, the pKd was “below the threshold”. With B2 the pKd was 3.71.

These binders were tested against T9, CARD11, Q9BXL7 (assay: holdup assay). Settings: plain residues with an end cap or a label only (N-terminal biotin on a linker: ttds).
Parameters: key: below the threshold = too weak to quantify, mostly under pKd 3.1 to 4
In the case of B1, the pKd is reported as “below the threshold”. With B2 the pKd was “below the threshold”.

Each binder was assayed against T10, RHPN1, Q8TCX5 (assay: holdup assay). Settings: plain residues with an end cap or a label only (N-terminal biotin on a linker: ttds).
Parameters: key: below the threshold = too weak to quantify, mostly under pKd 3.1 to 4
Binder B1 has a pKd of 5.14. B2 showed a pKd of 4.36.

The binders below were run against GRID2IP_2, A4D2P6 (assay: holdup assay). Settings: plain residues with an end cap or a label only (N-terminal biotin on a linker: ttds).
Chain of GRID2IP_2, A4D2P6 (A4D2P6 272-370): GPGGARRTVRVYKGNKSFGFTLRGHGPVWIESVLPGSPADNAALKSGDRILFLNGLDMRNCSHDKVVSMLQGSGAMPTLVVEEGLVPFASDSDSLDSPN
Parameters: key: below the threshold = too weak to quantify, mostly under pKd 3.1 to 4
Binder B1 has a pKd of 4.29. B2 was tested, and the pKd was 4.03.

The binders below were run against CASK, O14936 (assay: holdup assay). Settings: plain residues with an end cap or a label only (N-terminal biotin on a linker: ttds).
Chain of CASK, O14936 (O14936 487-570): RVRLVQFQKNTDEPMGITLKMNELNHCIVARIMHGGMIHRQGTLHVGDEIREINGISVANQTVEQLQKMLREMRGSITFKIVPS
Parameters: key: below the threshold = too weak to quantify, mostly under pKd 3.1 to 4
In the case of B1, the pKd is reported as “below the threshold”. B2 was tested, and the pKd was 3.47.

Each binder was assayed against T11, LNX2_3, Q8N448 (assay: holdup assay). Settings: plain residues with an end cap or a label only (N-terminal biotin on a linker: ttds).
Parameters: key: below the threshold = too weak to quantify, mostly under pKd 3.1 to 4
For B1, the pKd was “below the threshold”. With B2 the pKd was “below the threshold”.

— article PMC9482650, “Quantitative fragmentomics allow affinity mapping of interactomes” (Nature Communications, 2022)
